Test results: publication PMC8131632 (2021)

B1: REGN10987 Fab-TD (Fab, V domains shown)
VH: QVQLVESGGGVVQPGRSLRLSCAASGFTFSNYAMYWVRQAPGKGLEWVAVISYDGSNKYYADSVKGRFTISRDNSKNTLYLQMNSLRTEDTAVYYCASGSDYGDYLLVYWGQGTLVTVSS
VL: QSALTQPASVSGSPGQSITISCTGTSSDVGGYNYVSWYQQHPGKAPKLMIYDVSKRPSGVSNRFSGSKSGNTASLTISGLQSEDEADYYCNSLTSISTWVFGGGTKLTVL
B2: REGN10987 mIg-TD (antibody, V domains shown)
VH: B1 VH
VL: B1 VL
B3: REGN10933 Ig-TD (antibody, V domains shown)
VH: QVQLVESGGGLVKPGGSLRLSCAASGFTFSDYYMSWIRQAPGKGLEWVSYITYSGSTIYYADSVKGRFTISRDNAKSSLYLQMNSLRAEDTAVYYCARDRGTTMVPFDYWGQGTLVTVSS
VL: DIQMTQSPSSLSASVGDRVTITCQASQDITNYLNWYQQKPGKAPKLLIYAASNLETGVPSRFSGSGSGTDFTFTISGLQPEDIATYYCQQYDNLPLTFGGGTKVEIK
B4: CB6/Junshi Fab-TD (Fab, V domains shown)
VH: EVQLVESGGGLVQPGGSLRLSCAASGFTVSSNYMSWVRQAPGKGLEWVSVIYSGGSTFYADSVKGRFTISRDNSMNTLFLQMNSLRAEDTAVYYCARVLPMYGDYLDYWGQGTLVTVSS
VL: not shown
B5: REGN10933 mIg-TD (antibody, V domains shown)
VH: B3 VH
VL: B3 VL
B6: CB6/Junshi mIg-TD (antibody, V domains shown)
VH: B4 VH
VL: not shown
B7: CB6/Junshi Ig-TD (antibody, V domains shown)
VH: B4 VH
VL: not shown
B8: REGN10987 Ig-TD (antibody, V domains shown)
VH: B1 VH
VL: B1 VL
B9: REGN10933 Fab-TD (Fab, V domains shown)
VH: B3 VH
VL: B3 VL
B10: REGN10933 IgG1 (antibody, V domains shown)
VH: B3 VH
VL: B3 VL

Target: SARS-CoV-2 spike receptor binding domain (RBD), Avi-tagged and biotinylated (SARS-CoV-2, UniProt P0DTC2 319-541, biotin (Avi tag, by BirA))
Experiment: ELISA

Going from B1 to B2, the IC50 rises from 20 pM to 400 pM (20-fold).

Compared with B3, B4 is 1.5-fold lower in IC50: 45 pM for the first, 30 pM for the second.

Going from B5 to B6, the IC50 rises from 180 pM to 290 pM (1.6-fold). The first is the more potent here.

B7 and B8 are within 1.5-fold of each other in IC50: 100 pM for the first, 120 pM for the second.

First: B9
Second: B10
The IC50 of the first is 120-fold lower: 12 pM for the first, 1450 pM for the second.
